Source: article PMC11194070, “Despite the odds: formation of the SARS-CoV-2 methylation complex” (Nucleic Acids Research, 2024)

Biological target: T1, nsp10/16 complex (heterodimer of SARS-CoV-2 nsp10 and nsp16) (SARS-CoV-2, UniProt P0DTD1)
T1 construct: also called nsp10/nsp16; nsp10/16 heterodimer
Test: MST
Settings: both partners purified

B1: nsp14ExoN, nsp14 without the methyltransferase domain but retaining the exonuclease activity (domain or fragment)
chain: AENVTGLFKDCSKVITGLHPTQAPTHLSVDTKFKTEGLCVDIPGIPKDMTYRRLISMMGFKMNYQVNGYPNMFITREEAIRHVRAWIGFDVEGCHATREAVGTNLPLQLGFSTGVNLVAVPTGYVDTPNNTDFSRVSAKPPPGDQFKHLIPLMYKGLPWNVVRIKIVQMLSDTLKNLSDRVVFVLWAHGFELTSMKYFVKIGPERTCCLCDRRATCFSTASDTYACWHHSIGFDYVYNPFMIDVQQWGFTGNLQSNHDLYCQVHGNAHVASCDAIMTRCLAVHECFVKRVDWTIE
Kd: 110 ± 130 nM
